From US8710180B2, “VEGF-specific capture agents, compositions, and methods of using and making” (Indi Molecular, Inc., priority 2011, dated 2014)

What was measured:
VEGF165 [1] = molecular target: T1, VEGF165 (Homo sapiens, UniProt P15692); test: direct solid-phase ELISA, binding of capture agents to VEGF165; settings: immobilized VEGF165; KD estimated as concentration at half-maximal fluorescent emission
T1 construct: purchased Abcam ab56620
T1 sequence (P15692 27-191 isoform P15692-4): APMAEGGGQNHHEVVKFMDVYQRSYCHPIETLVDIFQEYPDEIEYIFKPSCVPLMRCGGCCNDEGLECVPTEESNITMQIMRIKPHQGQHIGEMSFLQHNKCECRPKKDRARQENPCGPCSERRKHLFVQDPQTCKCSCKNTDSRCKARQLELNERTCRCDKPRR
Protocol: The equilibrium dissociation constant (KD) for the capture agents may be estimated as the concentration corresponding to half-maximal fluorescent emission. Assaying multiple capture agents in parallel permits relative and absolute comparison of in vitro binding.
After washing each well with PBS (3×), the plate was filled with 5% non-fat dry milk in TBS (25 mM Tris, 150 mM NaCl, pH 7.25) containing 0.1% (v/v) Triton X-100 and blocked for 2 hours at 25° C. […] After washing all microwells with TBS/0.1%(v/v) Triton X-100 (5×), 0.1 μg/mL Streptavidin Poly-HRP conjugate (Pierce, Ill.) in TBS/0.1%(v/v) Triton X-100 was incubated for 30 minutes at 25° C. The plate was aspirated and washed with TBS/0.1% (v/v) Triton X-100 (5×), followed by TBS (5×), and then developed by adding QuantaRed^TM Enhanced Chemifluorescent HRP Substrate. Using an excitation wavelength of 535 nm, fluorescent emission at 595 nm was recorded by Beckman Coulter DTX880 photometer (Brea, Calif.) as a function of capture agent concentration. The titration curves were fit using a four-parameter regression curve fitting program (Origin 8.5, Northampton, Mass.).

VEGF165 [2] = molecular target: T1, VEGF165; test: pull-down (immunoprecipitation) of VEGF165 from spiked buffer or human serum, Western blot and silver stain; format: binding; settings: VEGF165-spiked buffer (B) vs 25% human serum (S)
Protocol: A pull-down assay was used to assess capture agent specificity for VEGF by measuring the ability of the capture agents to purify VEGF165 from buffer or complex media such as human serum. Capture agents were immobilized on streptavidin-functionalized magnetic beads, and the resultant resins were panned with VEGF165-spiked serum or buffer.
Pull-down detection of VEGF165 was performed using a modified immunoprecipitation technique that incorporated capture agents rather than antibody. […] A vehicle-only control (0.1% DMSO, v/v) accompanied each sample.
Proteins were captured by BSA-blocked Dynabeads® M-280 Streptavidin (Invitrogen, #112-05D) under rotation at 4° C. for 4 hours (100 μL of 50% slurry per pull-down condition). Beads were separated from the serum or buffer matrix by application of the DynaMag™-Spin magnet (Invitrogen, #123-20D), and captured proteins were eluted from the beads in 30 μL of reducing Laemmli buffer. Eluted samples were subjected to 12% SDS-PAGE separation at 200 V for 30 minutes in 1×TGS (25 mM Tris, 192 mM Glycine, 0.1% SDS (w/v), pH 8.3). Samples were subsequently electrophoretically transferred to a nitrocellulose membrane in 25 mM Tris, 192 mM Glycine, pH 8.3, containing 20% (v/v) methanol (Bio-Rad Laboratories, Hercules, Calif.) at 100 V for 45 minutes. […]

[3] = molecular target: T2, VEGF165 binding to Avastin® Fab (Homo sapiens, UniProt P15692); test: competitive ELISA, inhibition of VEGF165 binding to Avastin Fab; settings: 10 nM biotinylated VEGF165, Avastin Fab coated plate
T2 construct: biotin (chemical labelling)
T2 sequence (P15692 27-191 isoform P15692-4): T1 sequence (P15692 27-191 isoform P15692-4)
Protocol: Using an excitation wavelength of 535 nm, fluorescent emission at 595 nm was recorded by Beckman Coulter DTX880 photometer (Brea, Calif.) as a function of capture agent concentration. The titration curves were fit using a four-parameter regression curve fitting program (Origin 8.5, Northampton, Mass.). Concentrations of peptides corresponding to the midpoint absorbance of the titration curve were calculated and used as the IC50 values.

X-VEPNCDIHVMWEWECFERL-Tz4-lfrew-Tz4-eeird [Triligand 2]
Kd (VEGF165 [1]): ~15 nM
capture of VEGF in buffer vs. serum (VEGF165 [2]): captures equivalent amounts of VEGF in buffer and serum
IC50 [3]: 400 nM
